Key:
[1] = molecular target: T1, lysin motif (LysM) peptidoglycan-binding domain-containing protein (LPDP), recombinant (Staphylococcus lentus, UniProt A0A8I0UA09); experiment: MST
[2] = molecular target: T1, lysin motif (LysM) …; experiment: MST; in the presence of tubuloside B

B1: PDZ and LIM domain 3 (PDLIM3) (natural protein)
chain: MPQNVVLPGPAPWGFRLSGGIDFNQPLVITRITPGSKAAAANLCPGDVILAIDGFGTESMTHADAQDRIKAASYQLCLKIDRAETRLWSPQVSEDGKAHPFKINLEAEPQEFKPIGTAHNRRAQPFVAAANIDDKRQVVSASYNSPIGLYSTSNIQDALHGQLRGLIPGSLQNEPTASVPPQSDVYRMLHDNRDDPAAPRQSGSFRVLQDLVNDGPDDRPAGTRSVRAPVTKVHGGAGSAQRMPLCDKCGSGIVGAVVKARDKYRHPECFVCADCNLNLKQKGYFFVEGELYCETHARARTRPPEGYDTVTLYPKA
modifications: fluorescently labeled with the Monolith His-Tag Labeling Kit (in the microscale thermophoresis only)
In the case of B1, the Kd [1] is reported as 0.93 µM and the Kd [2] is reported as 4.55 µM.

From paper PMC12931730 (2025)
